B1: poly(A) RNA (rA20) (ssRNA)
RNA: AAAAAAAAAAAAAAAAAAAA
B2: G4 RNA (rG4), (G3A2)4 (structured_RNA)
RNA: GGGAAGGGAAGGGAAGGGAA

Tests used:
Sox2 HMG [1] = biological target: T1, Sox2 HMG (human, UniProt P48431 40-123); assay: fluorescence anisotropy; apparent; Hill n 0.68; FP at 4°C; ERα: 20 mM Tris pH 7.5 (at 25°C), 100 mM NaCl, 5% glycerol, 0.01% IGEPAL; Sox2: 10 mM Tris pH 7.5 (at 25°C), 135 mM KCl, 15 mM NaCl, 0.1 mg/mL BSA, 4% Ficoll, 0.05% NP-40, 1 mM DTT; SPR: ERα buffer, 25°C; conditions: protein: recombinant; tags: N-terminal His8-MBP, 3C-cleaved
T1 sequence (P48431 40-123): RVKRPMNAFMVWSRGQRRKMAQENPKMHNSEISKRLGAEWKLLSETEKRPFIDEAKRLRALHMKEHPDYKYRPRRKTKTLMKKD

Sox2 HMG [2] = biological target: T1, Sox2 HMG; assay: fluorescence anisotropy; printed ≤1; first (high-affinity) transition, 44% of signal; FP at 4°C; ERα: 20 mM Tris pH 7.5 (at 25°C), 100 mM NaCl, 5% glycerol, 0.01% IGEPAL; Sox2: 10 mM Tris pH 7.5 (at 25°C), 135 mM KCl, 15 mM NaCl, 0.1 mg/mL BSA, 4% Ficoll, 0.05% NP-40, 1 mM DTT; SPR: ERα buffer, 25°C; conditions: protein: recombinant; tags: N-terminal His8-MBP, 3C-cleaved; G-quadruplex
Sox2 HMG [3] = biological target: T1, Sox2 HMG; assay: fluorescence anisotropy; second (low-affinity) transition; FP at 4°C; ERα: 20 mM Tris pH 7.5 (at 25°C), 100 mM NaCl, 5% glycerol, 0.01% IGEPAL; Sox2: 10 mM Tris pH 7.5 (at 25°C), 135 mM KCl, 15 mM NaCl, 0.1 mg/mL BSA, 4% Ficoll, 0.05% NP-40, 1 mM DTT; SPR: ERα buffer, 25°C; conditions: protein: recombinant; tags: N-terminal His8-MBP, 3C-cleaved; G-quadruplex

Row | Binder | Kd (Sox2 HMG [1]) [nM] | Kd (Sox2 HMG [2]) [nM] | Kd (Sox2 HMG [3]) [nM]
1 | B1 | 40 ± 13 |  | 
2 | B2 |  | < 1 | 110 ± 32
